Measurements taken from publication PMC12140327, “Structural and Biochemical Characterization of a Widespread Enterobacterial Peroxidase Encapsulin” (Advanced Science, 2025).
Where “and” joins values, the source holds several entries; their conditions need not be identical. Equal entries are not always repeated.

What was measured:
[1] = molecular target: T1, EncDyP (Escherichia coli, UniProt A0A5C9AJY8); experiment: ABTS oxidation at […] nm, plate reader; format: biochemical; details: H2O2 as co-substrate; 50 mM phosphate citrate pH 4.6-7.6; room temperature
T1 construct: gene FPI65_30880; DyP-loaded T=1 encapsulin shell (60 Enc, about 3-5 DyP hexamers per shell); staggered co-expression in E. coli BL21(DE3), DyP in pCDFDuet-1, Enc in pBAD/HisA; no tag stated; DyP C-terminal residue K348; with Type 1 encapsulin shell protein

[2] = molecular target: T1, EncDyP; experiment: in-gel peroxidase activity stain (native PAGE, ferricyanide); format: biochemical; details: H2O2 0.003%; DAB in Tris-saline pH 7.5
[3] = molecular target: encapsulin shell protein (Enc) of the enterobacterial DyP encapsulin operon (E. coli); experiment: cryo-EM 2D class averages after shell subtraction; purified EncDyP from a two-gene operon under the T7 promoter
[4] = molecular target: encapsulin shell protein (Enc) of the enterobacterial DyP encapsulin operon (E. coli); experiment: cryo-EM 2D class averages after shell subtraction; purified EncDyP from staggered expression of DyP (PT7) and Enc (PBAD)
[5] = molecular target: encapsulin shell protein (Enc) of the enterobacterial DyP encapsulin operon (E. coli); experiment: cryo-EM structure; purified EncDyP from staggered co-expression, 2.8 mg/mL in 150 mM NaCl, 20 mM Tris pH 7.5; icosahedral symmetry imposed
[6] = molecular target: free His6-tagged Dye-decolorizing peroxidase (DyP); experiment: SEC; Superdex S-200, 150 mM NaCl, 20 mM Tris pH 7.5; heme followed by absorption at 404 nm
[7] = molecular target: free His6-tagged Dye-decolorizing peroxidase (DyP); experiment: cryo-EM structure; purified free DyP, 0.5 mg/mL in 150 mM NaCl, 20 mM Tris pH 7.5; D3 symmetry imposed

CCn1c(=NN=c2sc3cc(S(=O)(=O)O)ccc3n2CC)sc2cc(S(=O)(=O)O)ccc21 [ABTS]
ABTS oxidation at 420 nm, plate reader [1]: Peroxidase activity increased at a comparable rate for both free and encapsulated DyP

Nc1ccc(-c2ccc(N)c(N)c2)cc1N [DAB]
in-gel peroxidase activity stain (native PAGE, ferricyanide) [2]: in‐gel peroxidase activity staining using ferricyanide which confirmed the encapsulation of catalytically active DyP

Dye-decolorizing peroxidase (DyP) cargo, co-expressed with Enc and encapsulated (enzyme)
DyP hexamers per shell (hexamer per shell) [3]: < 1 | DyP hexamers per shell (DyP hexamers per shell) [4]: 3 and 5

encapsulin shell protein (Enc) of the enterobacterial DyP encapsulin operon (natural protein)
stoichiometry N [5]: 60

free His6-tagged Dye-decolorizing peroxidase (DyP) (enzyme)
stoichiometry N [6]: 6 | stoichiometry N [7]: 6
